Consider four molecules from patent publication US20120100140A1.

In test [1] the target is CD64 (FcγRI) (UniProt P12314). Put plainly: solution affinity SPR: antibody titrated into CD64, inhibition of CD64 binding to immobilized IgG1 MAb; average of two titrations.
For test [2], the target named is CD64 (FcγRI) (UniProt P12314). Kind of test: solution affinity SPR: inhibition of CD64 binding to immobilized IgG1 MAb.
Test [3] concerns the target CD16 (FcγRIIIa V158) (UniProt P08637). Put plainly: solution affinity SPR: antibody titrated into CD16, inhibition of CD16 binding to immobilized IgG1 MAb; average of two titrations.

Chain of CD64 (FcγRI) (P12314 16-288 limits assumed): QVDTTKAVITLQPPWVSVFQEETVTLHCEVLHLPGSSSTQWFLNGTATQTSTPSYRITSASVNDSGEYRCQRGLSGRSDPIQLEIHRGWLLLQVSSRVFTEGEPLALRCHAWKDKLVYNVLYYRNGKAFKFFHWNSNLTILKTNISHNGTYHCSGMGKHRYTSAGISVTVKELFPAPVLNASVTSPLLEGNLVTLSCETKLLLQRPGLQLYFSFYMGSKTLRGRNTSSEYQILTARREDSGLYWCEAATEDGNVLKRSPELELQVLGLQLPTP
Chain of CD16 (FcγRIIIa V158) (P08637 17-208 F176V limits assumed): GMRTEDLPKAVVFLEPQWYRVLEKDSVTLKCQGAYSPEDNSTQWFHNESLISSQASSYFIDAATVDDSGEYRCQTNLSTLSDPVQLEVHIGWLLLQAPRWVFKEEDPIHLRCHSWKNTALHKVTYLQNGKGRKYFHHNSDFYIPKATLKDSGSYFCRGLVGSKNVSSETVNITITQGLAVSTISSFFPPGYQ

B1: YC403 (hu5c8 aglycosylated IgG4.P S228P, T299A, T307P, L309K, D399S) (antibody)
heavy: QVQLVQSGAEVVKPGASVKLSCKASGYIFTSYYMYWVKQAPGQGLEWIGEINPSNGDTNFNEKFKSKATLTVDKSASTAYMELSSLRSEDTAVYYCTRSDGRNDMDSWGQGTLVTVSSASTKGPSVFPLAPCSRSTSESTAALGCLVKDYFPEPVTVSWNSGALTSGVHTFPAVLQSSGLYSLSSVVTVPSSSLGTKTYTCNVDHKPSNTKVDKRVESKYGPPCPPCPAPEFLGGPSVFLFPPKPKDTLMISRTPEVTCVVVDVSQEDPEVQFNWYVDGVEVHNAKTKPREEQFNSAYRVVSVLPVKHQDWLNGKEYKCKVSNKGLPSSIEKTISKAKGQPREPQVYTLPPSQEEMTKNQVSLTCLVKGFYPSDIAVEWESNGQPENNYKTTPPVLSSDGSFFLYSRLTVDKSRWQEGNVFSCSVMHEALHNHYTQKSLSLSLG
light: DIVLTQSPATLSVSPGERATISCRASQRVSSSTYSYMHWYQQKPGQPPKLLIKYASNLESGVPARFSGSGSGTDFTLTISSVEPEDFATYYCQHSWEIPPTFGGGTKLEIKRTVAAPSVFIFPPSDEQLKSGTASVVCLLNNFYPREAKVQWKVDNALQSGNSQESVTEQDSKDSTYSLSSTLTLSKADYEKHKVYACEVTHQGLSSPVTKSFNRGEC
modifications: chain 1 pos 1: N-terminal Gln largely converted to pyroglutamate, written Q; Fc aglycosylated
The IC50 is the concentration needed to halve the response being measured. A low value points to higher potency. Molecule B1 returned an IC50 in test [1] of 434 µM.

B2: EC331 (hu5c8 aglycosylated IgG4.P T299K, T307P with IgG1 CH3) (antibody)
heavy: QVQLVQSGAEVVKPGASVKLSCKASGYIFTSYYMYWVKQAPGQGLEWIGEINPSNGDTNFNEKFKSKATLTVDKSASTAYMELSSLRSEDTAVYYCTRSDGRNDMDSWGQGTLVTVSSASTKGPSVFPLAPCSRSTSESTAALGCLVKDYFPEPVTVSWNSGALTSGVHTFPAVLQSSGLYSLSSVVTVPSSSLGTKTYTCNVDHKPSNTKVDKRVESKYGPPCPPCPAPEFLGGPSVFLFPPKPKDTLMISRTPEVTCVVVDVSQEDPEVQFNWYVDGVEVHNAKTKPREEQFNSKYRVVSVLPVLHQDWLNGKEYKCKVSNKGLPSSIEKTISKAKGQPREPQVYTLPPSRDELTKNQVSLTCLVKGFYPSDIAVEWESNGQPENNYKTTPPVLDSDGSFFLYSKLTVDKSRWQQGNVFSCSVMHEALHNHYTQKSLSLSPG
light: DIVLTQSPATLSVSPGERATISCRASQRVSSSTYSYMHWYQQKPGQPPKLLIKYASNLESGVPARFSGSGSGTDFTLTISSVEPEDFATYYCQHSWEIPPTFGGGTKLEIKRTVAAPSVFIFPPSDEQLKSGTASVVCLLNNFYPREAKVQWKVDNALQSGNSQESVTEQDSKDSTYSLSSTLTLSKADYEKHKVYACEVTHQGLSSPVTKSFNRGEC
modifications: chain 1 pos 1: N-terminal Gln largely converted to pyroglutamate, written Q; Fc aglycosylated
In test [1], B2 gave an IC50 of 2600 µM.

B3: YC401 (hu5c8 aglycosylated IgG4.P S228P, T299A, T307P, D399S) (antibody)
heavy: QVQLVQSGAEVVKPGASVKLSCKASGYIFTSYYMYWVKQAPGQGLEWIGEINPSNGDTNFNEKFKSKATLTVDKSASTAYMELSSLRSEDTAVYYCTRSDGRNDMDSWGQGTLVTVSSASTKGPSVFPLAPCSRSTSESTAALGCLVKDYFPEPVTVSWNSGALTSGVHTFPAVLQSSGLYSLSSVVTVPSSSLGTKTYTCNVDHKPSNTKVDKRVESKYGPPCPPCPAPEFLGGPSVFLFPPKPKDTLMISRTPEVTCVVVDVSQEDPEVQFNWYVDGVEVHNAKTKPREEQFNSAYRVVSVLPVLHQDWLNGKEYKCKVSNKGLPSSIEKTISKAKGQPREPQVYTLPPSQEEMTKNQVSLTCLVKGFYPSDIAVEWESNGQPENNYKTTPPVLSSDGSFFLYSRLTVDKSRWQEGNVFSCSVMHEALHNHYTQKSLSLSLG
light: DIVLTQSPATLSVSPGERATISCRASQRVSSSTYSYMHWYQQKPGQPPKLLIKYASNLESGVPARFSGSGSGTDFTLTISSVEPEDFATYYCQHSWEIPPTFGGGTKLEIKRTVAAPSVFIFPPSDEQLKSGTASVVCLLNNFYPREAKVQWKVDNALQSGNSQESVTEQDSKDSTYSLSSTLTLSKADYEKHKVYACEVTHQGLSSPVTKSFNRGEC
modifications: chain 1 pos 1: N-terminal Gln largely converted to pyroglutamate, written Q; Fc aglycosylated
On to B3, for which, in test [1], the IC50 amounted to 377 µM.

B4: EC326 (hu5c8 IgG4.P S228P, T307P, L309K, D399S, glycosylated) (antibody)
heavy: QVQLVQSGAEVVKPGASVKLSCKASGYIFTSYYMYWVKQAPGQGLEWIGEINPSNGDTNFNEKFKSKATLTVDKSASTAYMELSSLRSEDTAVYYCTRSDGRNDMDSWGQGTLVTVSSASTKGPSVFPLAPCSRSTSESTAALGCLVKDYFPEPVTVSWNSGALTSGVHTFPAVLQSSGLYSLSSVVTVPSSSLGTKTYTCNVDHKPSNTKVDKRVESKYGPPCPPCPAPEFLGGPSVFLFPPKPKDTLMISRTPEVTCVVVDVSQEDPEVQFNWYVDGVEVHNAKTKPREEQFNSTYRVVSVLPVKHQDWLNGKEYKCKVSNKGLPSSIEKTISKAKGQPREPQVYTLPPSQEEMTKNQVSLTCLVKGFYPSDIAVEWESNGQPENNYKTTPPVLSSDGSFFLYSRLTVDKSRWQEGNVFSCSVMHEALHNHYTQKSLSLSLG
light: DIVLTQSPATLSVSPGERATISCRASQRVSSSTYSYMHWYQQKPGQPPKLLIKYASNLESGVPARFSGSGSGTDFTLTISSVEPEDFATYYCQHSWEIPPTFGGGTKLEIKRTVAAPSVFIFPPSDEQLKSGTASVVCLLNNFYPREAKVQWKVDNALQSGNSQESVTEQDSKDSTYSLSSTLTLSKADYEKHKVYACEVTHQGLSSPVTKSFNRGEC
modifications: heavy chain pos 1: Gln largely converted to pyroglutamate (Table 3.3), written Q; N-linked glycan (G0F, G1F, G2F, G0) at EU N297 = heavy chain pos 295
Regarding B4, the IC50 in test [2] was determined as 8 µM; in test [3], 380 µM; in test [1], 7.56 µM.
